# Results taken from PMC3251565.
# Target: platelet integrin αIIbβ3 (human (endogenous in platelets)) (UniProt P08514)
substance,measurement,value
Rhodostomin (from UniProt P30403) (natural protein),IC50 (KI in the text) of inhibition of ADP-induced platelet aggregation in human PRP,83.2 nM
